Numbering of substitutions follows the chain as printed.
T1: N-terminal 32 amino acids of huC16orf54 (Homo sapiens, UniProt Q6UWD8)
T1 sequence (Q6UWD8 1-32 limits assumed): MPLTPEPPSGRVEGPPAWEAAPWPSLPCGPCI

B1: R29-7-1C: murine anti-C16orf54 monoclonal antibody, IgG2a; VH SEQ ID NO: 8, VL SEQ ID NO: 10 (antibody, V domains shown)
VH: MRVLILLWLFTAFPGILSDVQLQESGPGLVKPSQSLSLTCTVTGYSITSDYAWNWIRQFPGNKLEWMGYISYSGSIRYNPSLKSRISITRDTSKNQFFLQLNSVTTEDTATYYCAREKYDNYYYAMDYWGQGTSVTVSS
VL: MDSQAQVLMLLLLWVSGTCGDIVMSQSPSSLAVSVGEKVTLSCKSSQNLLYSTNQKNYLAWYQQKPGQSPKLLIYWASTRESGVPDRFTGSGSGTDFTLTISSVKAEDLAVYYCQQYYSYRTFGGGTKLEIK
modifications: R29-7-1C heavy chain variable region; R29-7-1C light chain variable region
B2: R29-67-7A: murine anti-C16orf54 monoclonal antibody, IgG2a; VH SEQ ID NO: 12, VL SEQ ID NO: 14 (antibody, V domains shown)
VH: B1 VH with S71N, S75R, I76T, K83N, I88L, K94T, K118N, N121Y, Y122E, Y123F
VL: B1 VL with D2E, L41M, T53S, S119I
modifications: R29-67-7A heavy chain variable region; R29-67-7A light chain variable region

How the values were obtained:
[1] = target: T1, N-terminal 32 amino acids of huC16orf54; assay: Off-rate screen of hybridoma supernatants on OctetQK384 (biolayer interferometry); format: binding; details: calculated off-rate
Procedure: Eight anti-huC16orf54 monoclonal antibodies were further screened for binding and subsequent off-rate analysis using the OctetQK384® sytem (ForteBio). Hybridoma supernatants were screened for association to and dissocation from streptavidin sensors coated with the N-terminal 32 amino acids of huC16orf54 coupled to biotin, and the calculated offrates (kdis) are shown in Table 31. Cloned hybridomas with […] off-rates were carried forward for antibody purification.

[2] = test system: human C16orf54 extracellular domain peptides; assay: C16orf54 peptide ELISA, human extracellular domain peptides; format: binding; details: human, cyno, or mouse extracellular domain peptides, not told apart; 10 μg/ml antibody
Procedure: Anti-C16orf54 antibodies which bind to human C16orf54, including antibodies that are crossreactive with cyno C16orf54, were tested for their binding to various peptides derived from C16orf54 in a peptide ELISA. A 384-well high binding black microplate (Greiner) was incubated with 2 μg/ml of protein (human, cyno, or mouse extracellular domain peptides) for 16 hours, incubated for 1 hr with a blocking buffer (PBS with 5% Fetal Bovine Serum), washed four times with TBS with Tween, incubated for 1 hour with 10 μg/ml of anti-C16orf54 antibody, washed four times with TBS with Tween, incubated for 1 hour with 10 μg/ml of Peroxidase-AffiniPure Goat Anti-Mouse IgG, Fcγ Fragment Specific (Jackson ImmunoResearch), washed four times with TBS with Tween, and peroxidase was detected with a luminometer (Molecular Devices) upon addition of SuperSignal® ELISA Pico Chemiluminescent Substrate (Thermo Scientific). The luminescence signal was determined.

[3] = test system: human erythroid and myeloid progenitors (normal human bone marrow); assay: Colony forming unit (CFU) progenitor cell assays; format: cell-based; details: for BFU-E / CFU-E / CFU-GEMM / CFU-GM / Total CFC / Total Erythroid: colonies after 14 days; for direct effect on colony number or colony size of bone marrow progenitors: 0.032-100 μg/ml added directly into the methylcellulose matrix, 14 days; for indirect effect on colony number or colony size of progenitors: 0.032-100 μg/ml, 24 hours liquid culture, then methylcellulose matrix
Procedure: Colony forming unit (CFU) assays were performed to establish if there is binding of anti-C16orf54 antibodies to various progenitor cells including: CFU-E: colony forming unit erythroid (erythroid colony forming cells); BFU-E: burst forming unit erythroid (earliest known erythroid precursor cells); CFU-GM: colony forming unit granulocyte/macrophage (granulocyte-macrophage colony forming cells); and CFU-GEMM: colony forming unit granulocyte, erythrocyte, monocyte/macrophage, megakaryocyte (most primitive colony-forming cells). […] Clogenic progenitors of the human erythroid and myeloid lineages were set up in methylcellulose-based medium. All test antibodies and reagents were added to the medium at indicated concentrations. Triplicate cultures were initiated for each condition. Following 14 days in culture myeloid and erythroid colonies were assessed microscopically and scored. For these assays, anti-C16orf54 antibodies were evaluated for their direct and indirect effects on human erythroid and myeloid progenitor proliferation. […] Indirect effects on progenitors were assessed by incubating the cells with these antibodies in a liquid culture for 24 hours and subsequent culture of these cells in the methylcellulose matrix.

[4] = test system: KG-1 (acute myeloid leukemia) xenograft; format: in vivo, NOD-SCID mice; details: for tumor growth inhibition (in words) / tumor growth inhibition: KG-1 xenograft; for tumor growth inhibition (in words): compared to control IgG, antibodies weekly; for tumor growth inhibition: treatment initiated at 92 mm^3, HB121 IgG isotype negative control; for TGI (tumor growth inhibition) / Mean (tumor volume): Table 42, KG-1 AML model, NOD-SCID mice, weekly administration; for Mean (tumor volume): in mm³ (unit assumed)
Procedure: Subcutaneous tumors are generated by injection of 1×10^7 cancer cells in a mixture of PBS (without magnesium or calcium) and BD Matrigel™ (BD Biosciences) at a 1:1 ratio in the right flank of female SCID or nu^−/− mice. The injected total volume per mouse is […] with 50% being Matrigel (BD Biosciences). Mice are randomized once tumors reach a size between 65-200 mm^3. Antibodies are administered weekly, and body weights and tumors are measured once and twice weekly, respectively. Tumor volume is calculated as described (van der Horst et al. (2009) Neoplasia 11: 355-364). As a negative control, mice are injected with either purified mouse IgG or PBS; or a purified monoclonal antibody that recognizes an antigen other than C16orf54.
Anti-C16orf54 antibodies were tested for their anti-tumor activity in an animal-tumor model. For these studies, the cell line KG-1 (acute myeloid leukemia) was obtained from ATCC and cultured according to the suppliers' protocols. Animals were obtained from Taconic (Hudson, N.Y.). Studies were conducted with anti-C16orf54 antibodies and antibody-drug conjugates (ADCs) of these antibodies.
In these experiments, 4-6 week-old immunodeficient NOD-SCID female mice were used for the KG-1 tumor model. Mice were subcutaneously injected on the right flank with 6×10^6 viable cells (KG-1) in a mixture of PBS (without magnesium or calcium) and BD Matrigel™ (BD Biosciences). Once the tumor reached a size between 65-200 mm^3 mice were randomized. Anti-C16orf54 antibodies were administered weekly, and bodyweights and tumors were measured once and twice weekly, respectively. Tumor volume was calculated as described (van der Horst et al., supra). Experiments were performed on groups of at least eight animals per experimental point.
Statistical significance between treatment and control groups was calculated using the Graphpad Prism® software package and applying Student's two-tailed t-test. A p-value of less than 0.05 was considered significant.

C16orf54 ECD peptides = assay: Peptide crossblocking (Table 36); format: binding

| Molecule | kdis [1] [s⁻¹] | binding to peptides derived from the extracellular domain of C16orf54 (peptide ELISA) [2] | BFU-E ([3]; 0.032 μg/ml) | CFU-E ([3]; 0.032 μg/ml) | CFU-GM ([3]; 0.032 μg/ml) | Total CFC ([3]; 0.032 μg/ml) | Total Erythroid ([3]; 0.032 μg/ml) | BFU-E ([3]; 0.8 μg/ml) | CFU-E ([3]; 0.8 μg/ml) | CFU-GM ([3]; 0.8 μg/ml) | Total CFC ([3]; 0.8 μg/ml) | Total Erythroid ([3]; 0.8 μg/ml) | BFU-E ([3]; 4 μg/ml) | CFU-E ([3]; 4 μg/ml) | CFU-GM ([3]; 4 μg/ml) | Total CFC ([3]; 4 μg/ml) | Total Erythroid ([3]; 4 μg/ml) | BFU-E ([3]; 20 μg/ml) | CFU-E ([3]; 20 μg/ml) | CFU-GEMM ([3]; 20 μg/ml) | other results |
| --- | --- | --- | --- | --- | --- | --- | --- | --- | --- | --- | --- | --- | --- | --- | --- | --- | --- | --- | --- | --- | --- |
| B1 | 0.0102 | bind to the various peptides derived from the extracellular domain (ECD) of C16orf54 | 31 +/− 2 | 8 +/− 2 | 45 +/− 3 | 83 +/− 4 | 38 +/− 4 | 31 +/− 2 | 8 +/− 2 | 42 +/− 4 | 82 +/− 3 | 39 +/− 4 | 32 +/− 2 | 7 +/− 2 | 44 +/− 4 | 82 +/− 6 | 38 +/− 3 | 28 +/− 5 | 8 +/− 2 | 1 +/− 1 | CFU-GEMM ([3]; 0.032 μg/ml): 1 +/− 1; CFU-GEMM ([3]; 0.8 μg/ml): 1 +/− 1; CFU-GM ([3]; 20 μg/ml): 40 +/− 5; Total CFC ([3]; 20 μg/ml): 76 +/− 8; Total Erythroid ([3]; 20 μg/ml): 36 +/− 4; BFU-E ([3]; 100 μg/ml): 30 +/− 3; CFU-E ([3]; 100 μg/ml): 8 +/− 3; CFU-GEMM ([3]; 100 μg/ml): 1 +/− 1; CFU-GM ([3]; 100 μg/ml): 44 +/− 4; Total CFC ([3]; 100 μg/ml): 82 +/− 4; Total Erythroid ([3]; 100 μg/ml): 38 +/− 4; direct effect on colony number or colony size of bone marrow progenitors [3]: no effect on colony number or colony size of bone marrow progenitors; indirect effect on colony number or colony size of progenitors [3]: no effect on colony number or colony size; tumor growth inhibition (in words) [4]: inhibitors of tumor growth; tumor growth inhibition [4]: 69%; TGI (tumor growth inhibition) [4]: −8%; Mean (tumor volume) [4]: 2813.4; Peptide crossblocking (C16orf54 ECD peptides): none |
| B2 | 0.00845 | bind to the various peptides derived from the extracellular domain (ECD) of C16orf54 | 28 +/− 2 | 7 +/− 2 | 39 +/− 3 | 74 +/− 4 | 35 +/− 1 | 32 +/− 3 | 7 +/− 2 | 43 +/− 5 | 81 +/− 6 | 38 +/− 5 | 30 +/− 2 | 9 +/− 2 | 43 +/− 2 | 81 +/− 1 | 39 +/− 3 | 33 +/− 3 | 6 +/− 2 | 1 +/− 1 | CFU-GM ([3]; 20 μg/ml): 40 +/− 1; Total CFC ([3]; 20 μg/ml): 79 +/− 4; Total Erythroid ([3]; 20 μg/ml): 39 +/− 3; BFU-E ([3]; 100 μg/ml): 32 +/− 2; CFU-E ([3]; 100 μg/ml): 7 +/− 2; CFU-GM ([3]; 100 μg/ml): 43 +/− 6; Total CFC ([3]; 100 μg/ml): 83 +/− 5; Total Erythroid ([3]; 100 μg/ml): 39 +/− 3; direct effect on colony number or colony size of bone marrow progenitors [3]: no effect on colony number or colony size of bone marrow progenitors; indirect effect on colony number or colony size of progenitors [3]: no effect on colony number or colony size; tumor growth inhibition (in words) [4]: inhibitors of tumor growth; tumor growth inhibition [4]: 70%; TGI (tumor growth inhibition) [4]: 6%; Mean (tumor volume) [4]: 3221.4; Peptide crossblocking (C16orf54 ECD peptides): aa1-31, aa1-15 |
